Consider 4 molecules from patent publication US20230374087A1, “METHOD TO IMPROVE PROTEIN QUALITY CONTROL” (The Johns Hopkins University, priority 2020, published 2023).

For data set [1], the system named is neonatal rat cardiomyocytes (NRCMs).
Procedure: After overnight culture, subsets of NRCMs were infected with adenovirus (AdV) containing a FLAG-tagged PDE5, FLAG control, Myc-tagged CHIP WT or K31A (provided by Dr. Cam Patterson), S20E or S20A (Welgen Inc., Worcester, MA). Forty-eight hours after infection, cells were exposed to either simulated ischemia (SI) or normal conditions. SI involved incubating cells in DMEM containing deoxyglucose (20 mM), NaCl (125 mM), KCl (8 mM), KH2PO4 (1.2 mM), MgSO4 (1.25 mM), CaCl2) (1.2 mM), NaHCO3(6.25 mM), sodium lactate (5 mM), and HEPES (20 mM) with a pH of 6.6. Cells were then placed in an incubator chamber (Billups-Rothenberg) with 95% nitrogen, 4% carbon dioxide, and 1% oxygen. Normoxic controls were incubated in DMEM supplemented with 10% FBS in air composed of 95% carbon dioxide and 5% oxygen. RNA or protein was harvested after 48 hours of SI. Cells were also treated with sildenafil (1 μM) or vehicle, or small interference RNA (siRNA, 100 pM) specific for rat Stub1 (Qiagen, Cat. #: SI01532251) or scrambled control provided 24 hours after plating and transfected with Xfect (Takara) per manufacturer protocol.
Lactate dehydrogenase (LDH) leakage and (3-[4,5-dimethylthiazol-2-yl]-2,5-diphenyltetrazolium bromide) (MTT) were assessed in cultured cardiomyocytes and media after SI from the same culture dish. LDH was assayed by commercial assay (Roche) following manufacturer's protocol, read in 96 well microplates on a Spectramax M5 (Molecular Devices) at 490 nm absorbance. For MTT, cells were washed in phosphate-buffered saline, MTT (Sigma-Aldrich) working solution added to the culture dish, incubated at 37° C., solubilized with acidic isopropanol, transferred to a 96 well plate, and read at 570 nm with background subtraction at 650 nm on a Spectramax M5.
Another data set addresses T1, Hsc70 (Rattus norvegicus, UniProt P63018).
T1 construct: lysate from myocytes with or without exposure to SI were immunoprecipitated using Hsc70 as bait; endogenous in cells; host or cells: neonatal rat cardiomyocytes infected with adenovirus for Myc-tagged CHIP WT, S20E or S20A
Kind of data set: CHIP-Hsc70 co-immunoprecipitation from myocyte lysate. Type of data set: cell-based. The note with it: myocytes with or without SI, Hsc70 as bait. The method, then: (§1) Tissue and cultured cardiomyocytes were lysed in 1× lysis buffer (Cell Signaling Technology), protein concentration was measured by bicinchoninic acid assay (Pierce), and extracts were subjected to SDS-PAGE using Novex Tris-Glycine Gels (4-20% gradient gel, Life Technologies) or Mini-protean TGX Gels (4-20% gradient gel, Bio-Rad), transferred to nitrocellulose membranes, and probed with various primary antibodies (CHIP (#2080S), Hsc70 (#8444S), p-CHIP S20 (Custom antibody, AbMart Inc., Shanghai, China; Project: 25011-1), Myc (#2276S), GAPDH (#2118S), and α-tubulin (#3878S) (Cell Signaling) and ubiquitin antibody (#SAB4503053) from Sigma), and fluorescence-labeled secondary antibodies (Licor, #926-32211, 926-32210, 926-68023, or 926-68022). Gels were imaged (Odyssey, Licor) and band intensity quantified (Odyssey Software 3.1).
To test whether thermodynamic stabilization of CHIP-HSC70 due to S20 phosphorylation enhances protein binding, lysate from myocytes with or without exposure to SI were immunoprecipitated using Hsc70 as bait. […] Reduced CHIP-Hsc70 interaction was also observed in vivo following MI in hearts with PKG activation suppressed by mPDE5A/oe, whereas this was enhanced in WT hearts (FIG. 5C, FIG. 14B).

The subject of a further data set is ubiquitinated proteins. Kind of data set: Western blot of ubiquitinated proteins in NRCMs after SI. Type of data set: cell-based, rat. The note with it: adenovirus CHIP variant, SI 48 hours, compared to CHIP-WT. The method, then: as §1
For orientation: A western blot detects proteins with antibodies after separation by electrophoresis.

Data set [2] concerns TTR-V122I. Kind of data set: TTR abundance in hiPSC-CMs by western blot. It counts as cell-based, human. The note with it: TTR-V122I 5 μM; for TTR accumulation with Lamp2A knockdown: siLamp2A 100 μM; for TTR accumulation: Ad-Chip 10 MOI. The method, then:
Human induced pluripotent stem cell derived cardiomyocytes (hiPSC-CMs) were infected with Ad-Chip WT, SE, or SA (10 MOI), in the presence or absence of protein kinase G (PKG) stimulation via cGMP ([…]) and exposed to media containing TTR-V122I (5 μM) or control for 14 days. Cells were lysed and TTR abundance was determined by western blotting for TTR with a total protein stain used to show equal loading.
Human induced pluripotent stem cell derived cardiomyocytes (hiPSC-CMs) were infected with Ad-Chip WT, SE, or SA (10 MOI), in the presence or absence of Lamp2A knockdown via siRNA (siLamp2A, 100 μM) and exposed to media containing TTR-V122I (5 μM) or control for 14 days. Cells were lysed and TTR abundance was determined by western blotting for TTR with a total protein stain used to show equal loading. Knocking down Lamp2A removes the method of protein degradation known as chaperone mediated autophagy (CMA).

The subject of data set [3] is transthyretin (TTR) V122I. Kind of data set: TTR aggregates in NRCMs by confocal microscopy. It counts as cell-based, rat. The note with it: TTR V122I 5 μM, adenovirus, 14 days. The method, then: Neonatal rat cardiomyocytes (NRCMs) were cultured in mutant transthyretin (TTR) valine 122 to isoleucine (V122I)-containing medium (5 μM) and transfected with a Chip SE (serine 20 phospho-mimetic) or SA ([…] phospho-null) adenovirus and cultured for 14 days. Cardiomyocytes were stained with phalloidin (red), TTR (green), and nuclei with DAPI (blue).

In data set [4] the test system is TTR-V122I. Kind of data set: TTR abundance in cardiac fibroblasts by western blot. Type of data set: cell-based. The note with it: neonatal rat cardiac fibroblasts, WT or SA 10 MOI, SE 0, 2.5, 5 or 10 MOI, TTR-V122I 5 μM, 14 days. The method, then:
Fibroblasts were isolated from neonatal rat hearts and infected with Ad-Chip WT or SA (10 MOI) or SE (0, 2.5, 5, or 10 MOI) and exposed to media containing TTR-V122I (5 μM) for 14 days. Cells were lysed and TTR abundance was determined by western blotting for TTR with a total protein stain used to show equal loading.

In another data set the target is T2, Hsp70 (385-641) (Homo sapiens, UniProt P0DMV8).
T2 construct: Hsp70 (385-641)
T2 sequence (P0DMV8 385-641): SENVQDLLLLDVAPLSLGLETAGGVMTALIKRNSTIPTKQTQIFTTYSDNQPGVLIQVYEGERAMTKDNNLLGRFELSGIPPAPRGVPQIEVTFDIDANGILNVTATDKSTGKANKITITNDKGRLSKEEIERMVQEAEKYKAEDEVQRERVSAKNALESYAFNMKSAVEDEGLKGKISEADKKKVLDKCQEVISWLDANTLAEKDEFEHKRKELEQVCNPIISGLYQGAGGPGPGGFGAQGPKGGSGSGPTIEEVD
Kind of data set: Isothermal titration calorimetry of CHIP-Hsp70 binding. The note with it: ITC, 25° C.; for enthalpy (DH) / entropy (DS): triplicate, average ± SD. The method, then: Isothermal titration calorimetry was carried out using a TA Instruments NanoITC equilibrated at 25° C. and utilizing a stir speed of 600 rpm. Experiments were conducted in triplicate and data represents the average±one standard deviation. Titrations utilized 350 μM WT or S20E CHIP titrated into 50 µM Hsp70 (385-641) as a series of twenty four 2 μL injections.
(In ITC the heat of successive injections is recorded.)

Another data set concerns myocardial infarction. Kind of data set: Myocardial infarction by coronary ligation in CHIP S20E knock-in mice.
Data set [5] has as its target T3, Hsp40-stimulated ATPase activity of Hsc70 (Homo sapiens, UniProt P11142).
T3 construct: His-tag (N); made in house; host or cells: E. coli BL21(DE3)
Kind of data set: Chaperone refolding ATPase activity assay. Type of data set: biochemical. The note with it: CHIP 0.5-6 μM, Hsc70 0.5 μM, Hsp40 0.25 μM. The method, then: Human HSP40 (DnaJB1), human CHIP and CHIP point mutants in pET30a with a C-terminal His-tag and hHsc70 (HSPA8) wild type with an N-terminal His-tag in pCOLA-Duet1 were expressed in BL21(DE3) and purified on Ni-NTA (Qiagen). Hsc70 and CHIP proteins were induced and expressed for 22 hours at 18° C. Hsp40 protein was induced and expressed for 5 hours at 25° C. Required stock solutions of proteins were prepared by diluting high concentrated stocks in protein storage buffer into protein storage buffer, 20 mM HEPES (pH7.4), 150 mM NaCl. Hsc70 and Hsp40 were used at a concentration of 0.5 μM and 0.25 μM, respectively, with a gradient of CHIP protein concentrations (0.5-6 μM). Hsp40-stimulated ATPase activity of Hsc70 was measured using fluorescent polarization with the […]® ADP2 FP Assay (BellBrook Labs, 3010-1K) on a Clariostar plate reader (BMG) in 384 well black, non-binding plates (Greiner, 784900). Optimized instrument settings were used: Excitation wavelength. 590 nm; Emission wavelength: 675 nm; Required value: 5%; Target mP: 20; Gain A: 1824; Gain B: 1854; Focal Height: 12.4 mm. Values of μM ADP formed in the reactions were interpolated from an ATP/ADP standard curve run in parallel.

Data set [6] has as its target T4, recombinant human CHIP peptide fragment containing residues 13-30 (Uniprot Q9UNE7), WT.
T4 chain: LGAGGGSPEKSPSAQELK

The target in data set [7] is T5, recombinant human CHIP peptide fragment containing residues 13-30, S20A.
T5 chain: LGAGGGAPEKSPSAQELK

The mark [8] stands for this setting: 14 days, no Lamp2A knockdown (Example 8).

Residue numbers refer to the chain shown, from its start. In names and notes the source's numbering stands.

T3 sequence (P11142 whole entry): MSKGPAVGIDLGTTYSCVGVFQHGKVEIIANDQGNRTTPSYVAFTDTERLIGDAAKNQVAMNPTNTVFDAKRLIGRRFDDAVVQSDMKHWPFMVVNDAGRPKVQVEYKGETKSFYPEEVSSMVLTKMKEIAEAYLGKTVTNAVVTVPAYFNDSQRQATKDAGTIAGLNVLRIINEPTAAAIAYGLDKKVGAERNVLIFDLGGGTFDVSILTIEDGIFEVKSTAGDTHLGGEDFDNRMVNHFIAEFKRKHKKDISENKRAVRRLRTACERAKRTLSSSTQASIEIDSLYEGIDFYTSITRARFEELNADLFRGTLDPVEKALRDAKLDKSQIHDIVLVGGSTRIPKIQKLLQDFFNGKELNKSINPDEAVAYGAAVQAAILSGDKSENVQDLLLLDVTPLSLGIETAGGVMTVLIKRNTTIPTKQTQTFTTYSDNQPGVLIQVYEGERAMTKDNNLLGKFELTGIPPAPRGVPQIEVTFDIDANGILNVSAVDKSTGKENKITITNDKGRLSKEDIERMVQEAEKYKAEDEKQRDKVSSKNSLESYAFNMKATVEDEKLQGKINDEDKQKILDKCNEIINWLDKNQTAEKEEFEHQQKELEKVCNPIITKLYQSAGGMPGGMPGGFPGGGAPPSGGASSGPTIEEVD
Source text for myocardial infarction: Male and female mice (aged ˜3-4 months) were subjected to transmural myocardial infarction by mid left anterior descending artery ligation under open thoracotomy (25). Controls underwent open chest surgery and LAD isolation without ligation. Data obtained 1-week after infarction included 2D echocardiography (Vevo2100, 20-MHz; Visualsonics) in conscious mice to measure LV volume and ejection fraction, with analysis blinded to study group.
Myocardium was fixed in 4% paraformaldehyde, paraffin embedded, and sectioned into 4 μm slices, and stained with Masson's Trichrome. Fibrosis was quantified by color-based pixel count and intensity in parallel sections of the ischemic and remote areas (Aperio Image Scope). Transmural infarct size was estimated as the arc angle subtended by dense scar in a mid-MI cross section divided by 360° and expressed as percent. Immunostaining for ubiquitin (Sigma) and CHIP (Cell Signaling) was performed using AlexaFluor 488 conjugated secondary antibodies following the manufacturer's protocol. Counterstain was performed using DAPI (Invitrogen) and Troponin-T (Thermo Scientific) antibodies. Image acquisition was performed on a Leica confocal microscope (TCS SPE II) at 40× magnification.

B1: CHIP-S20A: phospho-silenced (phospho-null) CHIP mutant, serine 20 to alanine (protein)
chain: MKGKEEKEGGARLGAGGGAPEKSPSAQELKEQGNRLFVGRKYPEAAACYGRVITRNPLVAVYYTNRALCYLKMQQHEQALADCRRALELDGQSVKAHFFLGQCQLEMESYDEAIANLQRAYSLAKEQRLNFGDDIPSALRIAKKKRWNSIEERRIHQESELHSYLSRLIAAERERELEECQRNHEGDEDDSHVRAQQACIEAKHDKYMADMDELFSQVDEKRKKRDIPDYLCGKISFELMREPCITPSGITYDRKDIEEHLQRVGHFDPVTRSPLTQEQLIPNLAMKEVIDAFISENGWVEDY
modifications: left off: small tags and cut ends
notes: phospho-silenced (phospho-null) CHIP mutant, serine 20 to alanine
Regarding B1, in [1], the “SI-induced cytotoxicity (LDH/MTT ratio)” value is “displayed greater cytotoxicity and blunted the protective effects from SIL”. Also, the “co-precipitation of CHIP and Hsc70” value with Hsc70 is “co-precipitation was absent”. For the same molecule, the “ubiquitinated proteins after SI” value in the data set with ubiquitinated proteins is on record as “significantly amplified”. Also, the “TTR accumulation with Lamp2A knockdown” value with TTR-V122I [2] (14 days) is “exacerbated the accumulation of TTR”. Moreover, in data set [3], the TTR positive aggregates entry is “increased TTR positive aggregates”.

B2: CHIP-S20E: CHIP with serine 20 to glutamic acid phospho-mimetic substitution; recombinant protein, adenovirus-expressed, or knock-in mouse (protein)
chain: B1 chain with A19E
modifications: left off: small tags and cut ends
notes: CHIP with serine 20 to glutamic acid phospho-mimetic substitution; recombinant protein, adenovirus-expressed, or knock-in mouse
As for B2, the TTR accumulation result in the data set on TTR-V122I [4] is reported as “cleared by Chip SE expression in a dose-dependent manner”. For the same molecule, in the data set with Hsp70 (385-641), the “increase of Hsp70 affinity as compared to CHIP-WT” value is 59%, the “more negative enthalpy as compared to CHIP-WT” value turned out to be 1.34 kcal/mol, the “enthalpy (DH)” value was -7.67 ± 0.22 kcal/mol and the “entropy (DS)” value amounted to 2.34e-06 ± 8.84e-07 kcal/mol. Further, the Kd with Hsp70 (385-641) (read-out: increase of Hsp70 affinity as compared to CHIP-WT) was about 500 nM. In addition, in the data set with Hsc70, the “co-precipitation of CHIP and Hsc70” value is given as “confirmed”. For the same molecule, the “accumulation of ubiquitinated proteins after MI” value with myocardial infarction (knock-in mice vs littermate controls, peri-infarct zone) was “less accumulation of ubiquitinated proteins”. The “mortality after MI” value in the data set with myocardial infarction (male homozygotes and heterozygotes vs littermate controls) is “lower mortality”. Further, the “infarction size after MI” value in the data set on myocardial infarction (male knock-in mice vs littermate controls) was “reduced infarction size”. In addition, the “heart function after MI” value with myocardial infarction (male knock-in mice vs littermate controls, echocardiography) is reported as “improved heart function”. Further, the TTR accumulation entry in the data set on TTR-V122I [2] (14 days (Example 7)) is recorded as “cleared”. In the data set with TTR-V122I [2] (setting [8]), the TTR accumulation entry is “cleared”. For the same molecule, the “TTR accumulation with Lamp2A knockdown” value in the data set on TTR-V122I [2] (14 days) is “removed the protective effect”.

B3: CHIP-WT: wild type carboxy terminus of Hsc70-interacting protein (CHIP), recombinant or adenovirus-expressed (protein)
chain: B1 chain with A19S
modifications: left off: small tags and cut ends
B3: the “inhibition of Hsp70 ATPase activity” value in data set [5] is recorded as “dose-dependently inhibited”. The TTR accumulation entry in the data set on TTR-V122I [4], with TTR-V122I [2] (14 days (Example 7)) and in the data set with TTR-V122I [2] (setting [8]) was “TTR accumulated” throughout. Also, the “enthalpy (DH)” value with Hsp70 (385-641) is -6.31 ± 0.789 kcal/mol. In the data set with Hsp70 (385-641), the “entropy (DS)” value is 6.09e-06 ± 1.98e-06 kcal/mol. Also, the “co-precipitation of CHIP and Hsc70” value with Hsc70 is reported as “confirmed”. The “TTR accumulation with Lamp2A knockdown” value in the data set with TTR-V122I [2] (14 days) was “exacerbated the accumulation of TTR”.

B4: human, active PKG1α purified from Sf9 cells (SRP0371, Sigma) (protein)
chain: SELEEDFAKILMLKEERIKELEKRLSEKEEEIQELKRKLHKCQSVLPVPSTHIGPRTTRAQGISAEPQTYRSFHDLRQAFRKFTKSERSKDLIKEAILDNDFMKNLELSQIQEIVDCMYPVEYGKDSCIIKEGDVGSLVYVMEDGKVEVTKEGVKLCTMGPGKVFGELAILYNCTRTATVKTLVNVKLWAIDRQCFQTIMMRTGLIKHTEYMEFLKSVPTFQSLPEEILSKLADVLEETHYENGEYIIRQGARGDTFFIISKGTVNVTREDSPSEDPVFLRTLGKGDWFGEKALQGEDVRTANVIAAEAVTCLVIDRDSFKHLIGGLDDVSNKAYEDAEAKAKYEAEAAFFANLKLSDFNIIDTLGVGGFGRVELVQLKSEESKTFAMKILKKRHIVDTRQQEHIRSEKQIMQGAHSDFIVRLYRTFKDSKYLYMLMEACLGGELWTILRDRGSFEDSTTRFYTACVVEAFAYLHSKGIIYRDLKPENLILDHRGYAKLVDFGFAKKIGFGKKTWTFCGTPEYVAPEIILNKGHDISADYWSLGILMYELLTGSPPFSGPDPMKTYNIILRGIDMIEFPKKIAKNAANLIKKLCRDNPSERLGNLKNGVKDIQKHKWFEGFNWEGLRKGTLTPPIIPSVASPTDTSNFDSFPEDNDEPPPDDNSGWDIDF
Regarding B4, the “serine phosphorylation detected by mass spectrometry after incubation with cGMP/PKG” value in data set [6] is “Phosphorylation was observed at S20 with wildtype (WT) CHIP”; in data set [7], “Phosphorylation was also observed at neighboring S24 and S26, but only when a S20A CHIP mutant was used”.
